From patent publication WO2018215614A1 (dated 2018)

Target: T1, mouse Gpa33 in which human Exon III had been substituted (mouse; human, UniProt Q9JKA5 22-70; Q99795 71-139; Q9JKA5 140-319, limits assumed)
T1 sequence (looked up): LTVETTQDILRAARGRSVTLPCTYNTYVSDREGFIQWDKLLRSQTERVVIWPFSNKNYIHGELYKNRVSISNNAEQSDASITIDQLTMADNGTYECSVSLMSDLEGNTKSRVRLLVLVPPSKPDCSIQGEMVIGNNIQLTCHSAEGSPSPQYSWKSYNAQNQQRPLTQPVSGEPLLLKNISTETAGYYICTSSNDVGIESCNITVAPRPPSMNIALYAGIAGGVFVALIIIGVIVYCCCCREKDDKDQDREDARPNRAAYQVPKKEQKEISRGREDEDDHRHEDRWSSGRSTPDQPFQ
Test: cell-based or functional assay

B1: anti-hGpa33/Rspo4 fusion protein (antibody, human IgG1, kappa)
heavy: EVQLLESGGGLVQPGGSLRLSCAASGFAFSTYDMSWVRQAPGKGLEWVATISSGGSYTYYLDSVKGRFTISRDSSKNTLYLQMNSLQAEDSAIYYCAPTTVVPFAYWGQGTLVTVSSASTKGPSVFPLAPSSKSTSGGTAALGCLVKDYFPEPVTVSWNSGALTSGVHTFPAVLQSSGLYSLSSVVTVPSSSLGTQTYICNVNHKPSNTKVDKKVEPKSCDKTHTCPPCPAPELLGGPSVFLFPPKPKDTLMISRTPEVTCVVVDVSHEDPEVKFNWYVDGVEVHNAKTKPREQYNSTYRVVSVLPVLHQDWLNGKEYKCKVSNKALPAPIEKTISKAKGQPREPQVYTLPPSREEMTKNQVSLTCLVKGFYPSDIAVEWESNGQPENNYKTTPPVLDSDGSFFLYSKLTVDKSRWQQGNVFSCSVMHEALHYHYTQKSLSLSPGKEAAAREAAAREAAAREAAARVGTGLGGNCTGCIICSEENGCSTCQQRLFLFIRREGIRQYGKCLHDCPPGYFGIRGQEVNRCKKCGATCESCFSQDFCIRCKRQFYLYKGKCLPTCPPGTLAHQNTRECQGE
light: DIQMTQSPSSLSVSVGDRVTITCKASQNVRTVVAWYQQKPGLAPKTLIYLASNRHTGVPSRFSGSGSGTDFTFTISSLQPEDIATYFCQQHWSYPLTFGQGTKVEVKRRTVAAPSVFIFPPSDEQLKSGTASVVCLLNNFYPREAKVQWKVDNALQSGNSQESVTEQDSKDSTYSLSSTLTLSKADYEKHKVYACEVTHQGLSSPVTKSFNRGEC
- difference in cell viability (ATP-driven luciferase cell viability assay), humanized Gpa33 organoids against wildtype organoids, at 0.2 nM fusion protein: 200 fold
- difference in cell viability (ATP-driven luciferase cell viability assay), humanized Gpa33 organoids against wildtype organoids, at 0.4 nM fusion protein: 25 fold
